Measurements: patent publication US20240279344A1 (CDR LIFE, published 2024)
Where a chain is given by its changes, count along the chain named.

B1: M0849 scFv (scFv)
scFv: QEQLEESGGGLVTPGGTLTLTCTVSGFSLSNYAMGWVRQAPGKGLEWIGTINDGGTAFYAKWLKGRFTISRTSTTVDLKITSPTTEDTATYFCARAYGSNGDVYWGYFNLWGQGTLVTISSGGGGSGGGGSGGGGSGGGGASELVMTQTPSSVSEPVGGTVTIKCQASQSIGSNLAWYQQRPGQPPKLLIYSASTLASGVSSRFKGSGSGTESTLTISGVQAADAATYYCQQGYSSSNVDNVFGGGTELEIL
notes: Rabbit scFv identified by phage display
B2: M0851 scFv (scFv)
scFv: QEQLEESGGGLVTPGTPLTLTCTASGFSLSSYAMIWVRQAPGKGLEWIGTINDGGTAFYASWVKGRFTISRTSTTVDLKITSPTTEDTATYFCARAYGSNGDVYWGYVNLWGQGTLVTISSGGGGSGGGGSGGGGSGGGGASELVMTQTPSSVSAAVGGTVTINCQASQNIGSVFAWYQQKPGQPPKLLIYKASSLASGVPSRFKGSGSGTQFTLTISGVEAADAATYYCQQGASSSNVDNIFGGGTEVVVK
notes: as for B1
B3: M0862 scFv (scFv)
scFv: PEQLMESGGGLVTPGGVLTLTCTASGFSFSSYGVNWVRQAPGKGLEWIGFIFGDGTTYYANWAKGRFTISKTSTTVDLKMTSPTTEDTATYFCARDGYGGYDYIINLWGQGTLVTVSSGGGGSGGGGSGGGGSGGGGASAQVLTQTPASVSAAVGGTVSISCQSSQSVVNNNWLAWYQQKPGQPPKLLIYKASTLESGVPSRFKGSGSGTQFTLTISGVQADDAATYYCLGEFSCSSADCHAFGGGTELEIL
notes: as for B1
B4: M0850 scFv (scFv)
scFv: QEQLEESGGGLVTPGTPLTLTCTASGFSLSSYAMIWVRQAPGKGLEWIGTINDGGTAFYANWVKGRFTISRTSTTVDLKMTSPTTEDTATYFCARAYGSNGDVYWGYVNLWGQGTLVTVSSGGGGSGGGGSGGGGSGGGGASELVMTQTPASVSEPVGGTVTIKCQASQSIGSNLAWYQQKPGQPPKLLIYAAANLASGVSSRFKGSRSGTEYTLTISGVQAADAATYYCQQGYSSSNVANVFGGGTELEIL
notes: as for B1
B5: M0863 scFv (scFv)
scFv: PEQLMESGGGLVTPGGVLTLTCTASGFSFSSYGVNWVRQAPGKGLEWIGFIFGDGTTYYANWAKGRFTISKTSTTVDLKMTSPTTEDTATYFCARDGYGGYDYIINLWGQGTLVTVSSGGGGSGGGGSGGGGSGGGGASAQVLTQTPASVSAAVGGTVSISCQSSQSVVNNNWLAWYQQKPGQPPKLLIYKASTLESGVPSRFKGSGSGTQFTLTISGVQADDAATYYCQGAYSGNIYYNAFGGGTEVVVK
notes: as for B1
B6: M0861 scFv (scFv)
scFv: QSVKESGGRLVTPGTPLTLTCTVSGFSLSNYAMSWVRQAPGKGLEYIGIVSSGGTTYYASWAKGRFTISKTSTTVDLKITSPTTEDTATYFCAKDLYYGPTTYSAFNLWGQGTLVTISSGGGGSGGGGSGGGGSGGGGASELVLTQPASVQVNLGQTVSLTCTADTLSRSYASWYQLKPGQAPVLLIYRDTSRPSGVPDRFSGSSSGNTATLTISGAQAGDEGDYVCATSDGSGSNFQLFGGGTQLTVTG
notes: as for B1
B7: M0854 scFv (scFv)
scFv: QSVKESWGRLVTPGGSLTLTCTVSGIDLNNYAMGWVRQAPGKGLEWIGTINNDGATYYPSWARGRFTISKTSTTVDLKITSPTTEDTATYFCARTYGSNGDVYWGYFNLWGQGTLVTVSSGGGGSGGGGSGGGGSGGGGASALELTQTPASVEVAVGGTVTINCQASQSIGGALNWYQQKSGQPPKLLIYLASTLASGVSSRFKGSGSGTQFTLTISGVEAADAATYYCQQGYSASNIDNAFGGGTEVVVK
notes: as for B1
B8: M0848 scFv (scFv)
scFv: QEQLVESGGGLVTPGTPLTLTCTVSGFSLSSYAMGWVRQAPGKGLEWIGTINDGGTAFYASWVKGRFTISRTSTTVDLRVTSPTTEDTATYFCARAYGSNGDVYWGYFNLWGQGTLVTVSSGGGGSGGGGSGGGGSGGGGASELDLTQTPASVEVAVGGTVTIKCQASQSIGSYLSWYQQKPGQRPKLLIFRASTLASGVSSRFKGSGSGTQFTLTISGVECADAATYYCQQGYSSTNLDNVFGGGTEVVVK
notes: as for B1
B9: M0859 scFv (scFv)
scFv: QSVKESGGRLVTPGTPLTLTCTVSGFSLSNYAMSWVRQAPGKGLEYIGIVSSGGTTYYASWAKGRFTISKTSTTVDLKITSPTTEDTATYFCAKDLYYGPTTYSAFNLWGQGTLVTISSGGGGSGGGGSGGGGSGGGGASELVLTQPQSVSGSLGQTVSISCKRARDNIEDYYVHWYQQHPGKTPTIVIHKDDQRPSGVPDRFSGSIDSTSNSASLTITGLLAEDEADYFCQSFDNDASPVFGGGTQLTVTG
notes: as for B1
B10: M0858 scFv (scFv)
scFv: B9 scFv with K4E, I117V, D167N, K183R, T184S, D237N, S239N
notes: as for B1
B11: M0860 scFv (scFv)
scFv: B9 scFv with H180Y, H190Y, D237N, S239N, P240V
notes: as for B1
B12: M0853 scFv (scFv)
scFv: QQQLVESGGGLVTPGTPLTLTCTVSGFSLSNYAMGWVRQAPGKGLEWIGTINDGGTAFYANWLKGRFTISRTSTTVDLKITSPTTEDTATYFCARAYGSNGDVYWGYFNLWGQGTLVTVSSGGGGSGGGGSGGGGSGGGGASELVMTQTASPVSAAVGGTVTINCQASQSISSRSLSWYQQKPGQPPKLLIYEASKLASGVPSRFSGSGSGTQFTLTISGVQADDAATYYCQQGYSSSNVDNFGGGTEVVVK
notes: as for B1
B13: M0857 scFv (scFv)
scFv: QQQLVESGGRLVTPGTPLTLTCTASGIDLNSNAMSWVRQGPGKGLEWIGDIWSGGYTDYASWAKGRFTISKTSTTVDLKMTSLTAADTATYFCARDRLAGDGVVDYDLWGQGTLVTISSGGGGSGGGGSGGGGSGGGGASELDMTQTPASVEVAVGGTVTIKCQASQNIYSNLAWYQQKPGQRPKLLIYGASTLASGVPSRFKGSGSGTEYTLTINGVQAADAATYYCQQGFSSSNVDNVFGGGTEVVVK
notes: as for B1
B14: M0852 scFv (scFv)
scFv: QQQLEESGGGLVTPGTPLTLTCTVSGFSLSNYAMGWVRQAPGKGLEWIGTINDGGTAFYANWLKGRFTISRTSTTVDLKITSPTTEDTATYFCARAYGSNGDVYWGYFNLWGQGTLVTVSSGGGGSGGGGSGGGGSGGGGASELVMTQTASPVSAAVGGTVTINCQASQSISSRSLSWYQQKPGQPPKLLIYEASKLASGVPSRFSGSGSGTQFTLTISGVQADDAATYYCQQGYSSSNVDNVFGGGTEVVVK
notes: as for B1
B15: M0855 scFv (scFv)
scFv: QQQLEESGGGLVTPGTPLTLTCTVSGIDLSSYAMGWVRQAPGKGLEWIGTINDGGSAFYASWVKGRFTISRTSTTVDLKITSPTAEDTATYFCAKTYGTNGDVYWGYFNLWGQGTLVTISSGGGGSGGGGSGGGGSGGGGASELVMTQTPASVSEPVGGTVTIKCQASQSIGSNLAWYQQKPGQPPKLLIYYESILASGVPSRFSGSGSGTEYTLTISGAQADDAATYYCQQGYSSSNIDNAFGGGTEVVVK
notes: as for B1
B16: M0856 scFv (scFv)
scFv: B15 scFv with D240L
notes: as for B1

Molecular target: T1, HLA-A2/MAGE-A4 complex, recombinant (HLA-A*02:01 extracellular domain, human b2m, MAGE-A4 peptide 230-239 …) (human, UniProt P04439 25-299 at identity 0.94); P61769 21-119)
T1 construct: also called MAGE-A4 pMHC; MAGE-A4/HLA-A2 complex
Experiment: phage display biopanning and screening

| Binder | binding result |
| --- | --- |
| B1 | binds |
| B2 | binds |
| B3 | binds |
| B4 | binds |
| B5 | binds |
| B6 | binds |
| B7 | binds |
| B8 | binds |
| B9 | binds |
| B10 | binds |
| B11 | binds |
| B12 | binds |
| B13 | binds |
| B14 | binds |
| B15 | binds |
| B16 | binds |
